Reference: patent US20040038888A1 (priority 2002, published 2004)

Key:
[1] = test system: mouse adult neural stem cells; assay: Intracellular ATP assay, adult mouse NSC, non-adherent culture; type: cell-based; details: varying concentrations, non-adherent conditions, 3 days, relative to control, dose-dependent
Experimental: The anterior lateral wall of the lateral ventricle of 5-6 week old mice was enzymatically dissociated in 0.8 mg/ml hyaluronidase and 0.5 mg/ml trypsin in DMEM containing 4.5 mg/ml glucose and 80 units/ml DNase at 37° C. for 20 min. The cells were gently triturated and mixed with three volumes of Neurosphere medium (DMEM/F12, B27 supplement, 12.5 mM HEPES pH7.4) containing 20 ng/ml EGF (unless otherwise stated), 100 units/ml penicillin and 100μg/ml streptomycin. After passing through a 70 μm strainer, the cells were pelleted at 160×g for 5 min. The supernatant was subsequently removed and the cells resuspended in Neurosphere medium supplemented as above, plated out in culture dishes and incubated at 37° C. Neurospheres were ready to be split approximately 7 days after plating.
To split neurosphere cultures, neurospheres were collected by centrifugation at 160×g for 5 min. […]
Mouse neurospheres, cultured as described above, from passage 2, were seeded in DMEM/F12 supplemented with B27 into a 96-well plate as single cells (10000 cells/well) to the substances to be measured were added at the concentrations indicated. After 3 days incubation, intracellular ATP was measured using the ATP-SL kit from BioThema, Sweden, according to the manufacturer's instructions. […]

ADCYAP1R1 = biological target: T1, ADCYAP1R1 (Homo sapiens, UniProt P41586); details: unlike PACAP, which binds ADCYAP1R1 and VIPR1 & 2; Moro and Lerner 1997; cited from earlier work
T1 sequence (P41586 21-468): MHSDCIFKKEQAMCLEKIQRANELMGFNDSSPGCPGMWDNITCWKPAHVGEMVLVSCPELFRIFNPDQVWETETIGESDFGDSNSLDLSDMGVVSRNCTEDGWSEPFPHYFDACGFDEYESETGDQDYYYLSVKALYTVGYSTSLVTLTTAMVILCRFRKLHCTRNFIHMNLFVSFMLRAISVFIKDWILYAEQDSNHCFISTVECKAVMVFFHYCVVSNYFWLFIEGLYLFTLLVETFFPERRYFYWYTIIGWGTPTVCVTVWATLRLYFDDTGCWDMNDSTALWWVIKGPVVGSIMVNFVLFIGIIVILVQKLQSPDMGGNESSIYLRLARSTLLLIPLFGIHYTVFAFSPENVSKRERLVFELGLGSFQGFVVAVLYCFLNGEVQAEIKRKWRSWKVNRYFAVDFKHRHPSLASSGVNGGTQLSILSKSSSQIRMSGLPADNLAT

B1: Maxadilan: 63 amino acid peptide from salivary gland extracts of the sand fly; specific ADCYAP1R1 agonist (SEQ ID NO: 13) (peptide, listed as Mus musculus)
chain: CDATCQFRKAIEDCRKKAHHSDVLQTSVQTTATFTSMDTSQLPGSGVFKECMKEKAKEFKAGK
- intracellular ATP levels, and hence cell number [1]: statistically significant increase in intracellular ATP levels
- binding specificity (ADCYAP1R1): binds specifically to only ADCYAP1R1
